Experimental data taken from patent US20250339504A1 (published 2025).

Biological target: EPHB4 peptide on HLA-A*02:01 (human)
Assay: activation reporter or marker

binding result: recognises
B1: Clone 4, 7, 34 (Table 10) (TCR, V domains shown)
Valpha: GEQVEQRPPHLSVREGDSAFIICTYTDSATAYFYWYKQEPGAGLQLLMSVFSNVDRKEEQGLTVLLNKKDKRLSLNLTAAHPGDSAVYFCAVGNSNNRIFFGDGTQLVVKP
Vbeta: NTKITQSPRYLILGRANKSLECEQHLGHNAMYWYKQSAEKPPELMFLYNLKQLIRNETVPSRFIPECPDSSKLLLHISAVDPEDSAVYFCASSQLGSSAETLYFGSGTRLTVL
